Measured values taken from patent publication US20230002500A1 (BEIGENE, published 2023).

How the values were obtained:
[1] = target: T1, recombinant OX40 protein with a His tag (Cat: 10481-H08H, Sino Biological) (UniProt P43489 29-216); assay: SPR (BIAcore T-200), antibody captured by anti-human IgG, OX40-His flowed; Test 1
T1 construct: Bought protein; not shown: His tag
T1 sequence (looked up): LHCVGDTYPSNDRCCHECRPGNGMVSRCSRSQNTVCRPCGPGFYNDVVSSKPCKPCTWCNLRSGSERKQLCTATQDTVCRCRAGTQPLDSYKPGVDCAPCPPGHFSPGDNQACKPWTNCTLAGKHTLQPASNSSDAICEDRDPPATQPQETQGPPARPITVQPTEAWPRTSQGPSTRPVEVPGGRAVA
From the text: (§1) The anti-OX40 antibodies were characterized for their binding kinetics and affinity by SPR assays using BIAcore™ T-200 (GE Life Sciences). Briefly, anti-human IgG antibody was immobilized on an activated CM5 biosensor chip (Cat: BR100530, GE Life Sciences). An antibody with human IgG Fc region was flowed over the chip surface and captured by anti-human IgG antibody. Then a serial dilution of recombinant OX40 protein with a His tag (Cat: 10481-H08H, Sino Biological) was flowed over the chip surface and changes in surface plasmon resonance signals were analyzed to calculate the association rates (ka) and dissociation rates (kd) by using the one-to-one Langmuir binding model (BIA Evaluation Software, GE Life Sciences). The equilibrium dissociation constant (KD) was calculated as the ratio kd/ka.

[2] = target: T2, full-length human OX40 expressed on HuT78 cells (HuT78/OX40) (human, UniProt P43489 29-277); assay: cell-based or functional assay
T2 sequence: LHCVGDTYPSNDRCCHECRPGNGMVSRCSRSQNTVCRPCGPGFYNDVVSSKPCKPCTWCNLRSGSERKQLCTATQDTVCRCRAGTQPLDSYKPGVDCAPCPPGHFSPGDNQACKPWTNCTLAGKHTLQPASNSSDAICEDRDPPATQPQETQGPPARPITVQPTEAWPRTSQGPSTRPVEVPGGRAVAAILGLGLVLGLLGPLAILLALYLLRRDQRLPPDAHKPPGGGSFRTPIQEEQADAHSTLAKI

[3] = target: T1, recombinant OX40 protein with a His tag …; assay: Biacore SPR (set-up not named on the sheet; by Example 4 antibody captured, OX40-His flowed)
[4] = target: T1, recombinant OX40 protein with a His tag …; assay: SPR (BIAcore T-200), antibody captured by anti-human IgG, OX40-His flowed; Test 2
From the text: as §1

B1: 445-3 IgG4 (445-3 with the Fc domain of human IgG4 with S228P and R409K mutations) (antibody, V domains shown)
VH: QVQLVQSGAEVKKPGSSVKVSCKASGYKFTSYIIHWVRQAPGQGLEWMGYINPYNEGTRYNQKFQGRVTLTADKSTSTAYMELSSLRSEDTAVYYCARGYYGSSYAMDYWGQGTTVTVSS
VL: DIQMTQSPSSLSASVGDRVTITCRASQGISNYLNWYQQKPDGAIKLLIYDASTLYSGVPSRFSGSGSGTDFTLTISSLQPEDFATYYCQQYSKLPYTFGGGTKVEIK
[1]
  koff: 0.00161 s⁻¹
  kon: 161000 M⁻¹ s⁻¹

B2: humanized anti-OX40 monoclonal antibody 445-3 (antibody, V domains shown)
VH: QVQLVQSGAEVKKPGSSVKVSCKASGYKFTSYIIHWVRQAPGQGLEWMGYINPYNEGTRYNQKFQGRVTLTADKSTSTAYMELSSLRSEDTAVYYCARGYYGSSYAMDYWGQGTTVTVSS
VL: DIQMTQSPSSLSASVGDRVTITCRASQGISNYLNWYQQKPDGAIKLLIYDASTLYSGVPSRFSGSGSGTDFTLTISSLQPEDFATYYCQQYSKLPYTFGGGTKVEIK
notes: Human IgG1 wild type format
[2]
  ADCC, LDH release, NK92MI/CD16V effector cells and HuT78/OX40 target cells, EC50: 27 ng/mL
  IL-2 production of HuT78/OX40 cells co-cultured with HEK293/OS8Low-FcγRI cells (ELISA), EC50: 0.06 ng/mL
[1]
  koff: 0.00167 s⁻¹
  kon: 182000 M⁻¹ s⁻¹
[3]
  koff: 0.00148 s⁻¹
  kon: 174000 M⁻¹ s⁻¹
[4]
  koff: 0.00159 s⁻¹
  kon: 163000 M⁻¹ s⁻¹
